Experimental data published in PMC5134833, “The amyloid-beta forming tripeptide cleavage mechanism of γ-secretase” (eLife, 2016).

Molecular target: T1, γ-secretase (Homo sapiens, UniProt P49768)
T1 construct: made in house; host or cells: suspension HEK cells (Freestyle 293), transiently transfected
Assay: In vitro γ-secretase assay (purified γ-secretase in proteoliposomes cleaving recombinant C100-FLAG substrate)
Assay type: biochemical
Details: C100-FLAG 500 nM, Figure 1B, 1F
Method: Purified γ-secretase was incorporated into vesicles by first dissolving total brain lipid extract (1.25 mM final) in 50 mM HEPES pH 7.0, 150 mM NaCl, 0.25% CHAPSO. γ-Secretase (5–30 nM final concentration) was then added to the solution and detergent removed by mixing SM-2 biobeads (62 mg/mL) (Bio-Rad) with the lipid/detergent/enzyme solution for two hrs at 4°C. Biobeads were removed from the newly formed proteoliposomes and reactions were initiated with the addition of purified recombinant substrate C100-FLAG substrate. Reactions were quenched with SDS loading dye for western blot or centrifuged for ELISA or mass spectrometry on Aβ or AICD fragments, respectively.
For inhibition studies, tripeptide fragments or inhibitors were dissolved in DMSO prior to being diluted into the reaction buffer. The concentration of C100-FLAG used in all in vitro assays was 500 nM unless otherwise stated.
Tripeptide IC50 inhibition was fit to: vi/vo=1/(1+[I]/IC50)
Tripeptide inhibition was globally fit to the following noncompetitive equation: v= Vmax[S]/[S](1+[I]/Kii)+Km(1+[I]/Ki)
Inhibitor cross-competition was globally fit to: 1/vij=1/v0(1+[I]/Ki+[J]/Kj+[I][J]/αKiKj)

Substance	inhibition of γ-secretase activity (relative potency in words)
AFA: synthetic tripeptide predicted to clash with the S' pocket binding site	very weak inhibitor
FAF: synthetic tripeptide of the predicted optimal binding sequence for the large-small-large S1'-S2'-S3' pockets	more potent inhibitor of γ-secretase activity than any of the naturally occurring APP-derived tripeptides
